According to PMC6258031 (Structure (London, England : 1993), 2017):
Non-standard residues stand in square brackets, D forms with d. SeMet = C[Se]CC[C@H](N)C(=O)O

T1: Bicc1 SAM F920E (human, UniProt Q9H694 870-939, F920E)
T1 sequence (looked up): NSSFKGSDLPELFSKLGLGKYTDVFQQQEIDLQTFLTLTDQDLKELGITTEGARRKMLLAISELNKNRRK

T2: ANKS3 SAM F472E (human, UniProt Q6ZW76 421-490, F472E)
T2 sequence (looked up): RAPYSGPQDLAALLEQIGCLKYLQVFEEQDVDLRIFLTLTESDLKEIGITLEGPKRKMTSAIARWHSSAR

B1: ANKS3 SAM I455E (domain or fragment, human, UniProt Q6ZW76 421-490, looked up)
chain: RAPYSGPQDLAALLEQIGCLKYLQVFEEQDVDLREFLTLTESDLKEIGITLFGPKRKMTSAIARWHSSAR
B2: Bicc1 SAM E898K (domain or fragment, human, UniProt Q9H694 870-939, looked up)
chain: NSSFKGSDLPELFSKLGLGKYTDVFQQQKIDLQTFLTLTDQDLKELGITTFGARRKMLLAISELNKNRRK
B3: Bicc1 SAM R924E (native) (domain or fragment, human, UniProt Q9H694 870-939, looked up)
chain: NSSFKGSDLPELFSKLGLGKYTDVFQQQEIDLQTFLTLTDQDLKELGITTFGAREKMLLAISELNKNRRK
B4: Bicc1 SAM D911K (domain or fragment, human, UniProt Q9H694 870-939, looked up)
chain: NSSFKGSDLPELFSKLGLGKYTDVFQQQEIDLQTFLTLTDQKLKELGITTFGARRKMLLAISELNKNRRK
B5: Bicc1 SAM R924E SeMet (domain or fragment, human, UniProt Q9H694 870-939, looked up)
chain: NSSFKGSDLPELFSKLGLGKYTDVFQQQEIDLQTFLTLTDQDLKELGITTFGAREK[SeMet]LLAISELNKNRRK

Tests used:
ANKS6 SAM (Homo sapiens) = ANKS6 SAM (Homo sapiens) (UniProt Q68DC2); details: cited from earlier work
Chain of ANKS6 SAM (Homo sapiens) (Q68DC2 770-839): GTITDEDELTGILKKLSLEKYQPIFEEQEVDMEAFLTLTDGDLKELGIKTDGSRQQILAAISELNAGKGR

Bicc1 SAM F920E = target: T1, Bicc1 SAM F920E; assay: SEC-MALS
Bicc1 SAM R924E (native) = target: B3; assay: SPR
ANKS3 SAM F472E = target: T2, ANKS3 SAM F472E; assay: SPR
crystal structure = target: the molecule itself; assay: crystal structure

Molecule | Kd (Bicc1 SAM R924E (native)) [µM] | Kd (ANKS3 SAM F472E) [µM] | binding result (crystal structure) | further results
ANKS3 SAM (from UniProt Q6ZW76) | – | – | – | Kd (ANKS6 SAM (Homo sapiens)): 0.249 µM
B1 | 2.2 ± 0.1 | – | – | binding result (Bicc1 SAM F920E): binds
B2 | 1.35 ± 0.1 | 1.35 ± 0.1 | – | –
B3 | – | – | binds | –
B4 | 1.35 ± 0.1 | 1.35 ± 0.1 | – | –
B5 | – | – | binds | –
